Assay results taken from US20100291106A1 (Novartis, published 2010).
Read-outs that look alike come from different tables or passages of the source.

Assays:
[1] = molecular target: T1, human C5 (human, UniProt P01031 19-673; P01031 678-1676); experiment: cross reactivity, capture ELISA with anti-C5 capture antibody, anti-His detection
T1 construct: Captured by an anti-C5 antibody in the ELISA

[2] = molecular target: T2, human complement C3b protein (human, UniProt P01024 23-667; P01024 749-1663); experiment: solution equilibrium titration (SET), ECL detection, Fab
T2 construct: Purified plasma C3b (Complement Technology, Quidel); Depending on the assay it was captured by an anti-C3d antibody, coated, biotinylated or coupled to beads; also called human C3b; huC3b

[3] = molecular target: T3, cynomolgus complement C3b protein (cynomolgus monkey (Macaca fascicularis)); experiment: as above
T3 construct: also called cyno C3b; cynoC3b

[4] = molecular target: T2, human complement C3b protein; experiment: cell-based or functional assay
[5] = molecular target: T3, cynomolgus complement C3b protein; experiment: cell-based or functional assay
[6] = molecular target: T2, human complement C3b protein; experiment: bead proximity assay, C3b-acceptor beads; competitor biotinylated fH
Experimental: (§1) For C3b-C3b and C3b-fP proximity, Fabs or IgGs respectively were pre-incubated with C3b-Acceptor beads (20 μg/ml) for 60 min at room temperature. C3b-Donor beads or fP-Donor beads (20 μg/ml) were then added, and the plate was incubated overnight at room temperature before reading. For C3b-fB and C3b-fH proximity, antibodies were pre-incubated with C3b-Acceptor beads (20 μg/ml) for 60 minutes at room temperature. Biotinylated fB(D24G/N260D) or fH were then added, and incubated for 60 minutes at room temperature. SA-Donor beads were then added (20 μg/ml) and the plate was incubated overnight at room temperature before reading. Plates were read on the BMG Pherastar (ex=680, em=520-620).

[7] = molecular target: T4, human C3d (human, UniProt P01024 1002-1303); experiment: cross reactivity, ELISA on C3d, anti-His detection
T4 construct: domain: C3d
Experimental: In order to determine whether the anti-C3b antibodies described herein can bind to complement pathway components iC3b and C3c, the following steps were performed: Directly add iC3b(complement Technologies A115), C3d (complement Technologies A117), or C3c (complement Technologies A116), at 2 μg/ml in Carbonate Buffer onto Coat Maxisorp plate Nunc (442404) at 100 μl per well. Seal plates and incubate at 4° C. overnight. Aspirate plates and wash 3 times with PBS/0.5% Tween 20. Block plates with Diluent (PBS, 4% BSA Fraction V (Fisher ICN16006980), 0.1% Tween 20 (Sigma P1379), 0.1% Triton X-100 (Sigma P234729)) and incubate for 2 h at room temperature or overnight at 4° C. Then wash plates once with PBS/0.5% Tween 20. Dilute Fabs at 100 nM and subsequent dilutions (or higher concentration if needed) in diluent and plate 100 μl per well. Incubate at room temperature for 1 h. Wash plates 3 times with PBS/0.5% Tween 20. Add 100 μl/well of anti-Histidine-HRP monoclonal detection antibody at 1:400 in diluent and incubate at room temperature for 1 h. Then wash 4 times with PBS/0.5% Tween 20. Add 100 μl of TMB substrate (Pierce 34028) and incubate at room temperature for up to 5 min. Add 50 μl of Stop solution (2N Sulfuric Acid) to each well and read plate at 450 nm and correct for plastic reading at 570 nm.

[8] = molecular target: T2, human complement C3b protein; experiment: bead proximity assay, C3b-acceptor beads; competitor biotinylated fB(D24G/N260D)
Experimental: as §1

[9] = molecular target: T2, human complement C3b protein; experiment: SPR (Biacore), C3b captured by anti-C3d antibody, Fab as analyte
[10] = molecular target: T3, cynomolgus complement C3b protein; experiment: as above
[11] = molecular target: T1, human C5; experiment: Direct ELISA at 2 ug/ml C5, 200 nM Fab
[12] = molecular target: T3, cynomolgus complement C3b protein; experiment: SPR (Biacore), C3b captured by anti-C3d antibody, Fab as analyte; remark: listed apart in the source
[13] = molecular target: T3, cynomolgus complement C3b protein; experiment: cell-based or functional assay; remark: listed apart in the source
[14] = molecular target: T3, cynomolgus complement C3b protein; experiment: solution equilibrium titration (SET), ECL detection, Fab; remark: listed apart in the source
[15] = molecular target: T2, human complement C3b protein; experiment: AlphaScreen bead proximity, C3b-Acceptor beads pre-incubated with antibody, then biotinylated fB(D24G/N260D) and SA-Donor beads; blocked ligand: fB [A]
Experimental: (§2) In brief, purified C3b and fP were conjugated to unconjugated acceptor or donor beads (PerkinElmer) using AminoLink Reductant (Pierce) during a 48 h incubation at room temperature. Beads were quenched using Carboxymethoxylamine Hemihydrochloride (Aldrich), and purified by centrifugation at 13000 rpm and three washes with 0.1M TBST. Purified fB(D24G/N260D) and fH were biotinylated during a 30 min incubation with 20-fold molar excess of NHS-Chromogenic-biotin (Pierce) at room temperature, and purified using Zeba 0.5 ml desalting columns (Pierce).
as §1

[16] = molecular target: T2, human complement C3b protein; experiment: ELISA, C3b or C3 captured by anti-C3d antibody
Experimental: The C3b antibodies were examined to determine whether they were selective for binding to C3b relative to the C3b precursor C3. Briefly, binding selectivity for C3b was determined by performing the following steps. Coat Maxisorp plate Nunc (442404) with anti-C3d rabbit monoclonal (abcam 17453) at 2 μg/ml in Carbonate Buffer at 100 μl/well. Seal plates and incubate at 4° C. overnight. Aspirate plates and wash 3 times with PBS/0.5% Tween 20. Block plates with Diluent (PBS, 4% BSA Fraction V (Fisher ICN16006980), 0.1% Tween 20 (Sigma P1379), 0.1% Triton X-100 (Sigma P234729)) and incubate for 2 h at room temperature or overnight at 4° C. Then wash plates once with PBS/0.5% Tween 20. Dilute purified C3b (complement technologies A114 lot 21) and C3 (complement technologies A113c) at 1 μg/ml in diluent and plate 100 μl per well. Incubate for 1 h at room temperature. Then wash 3 times with PBS/0.5% Tween 20.
Dilute Fabs at 100 nM and subsequent dilutions (or higher concentration) in diluent and plate 100 μl per well. Incubate at room temperature for 1 h. Wash plates 3 times with PBS/0.5% Tween 20. Add 100 μl/well of anti-Histidine-HRP monoclonal detection antibody at 1:400 in diluent and incubate at room temperature for 1 h. Then wash 4 times with PBS/0.5% Tween 20. Add 100 μl of TMB substrate (Pierce 34028) and incubate at room temperature for up to 5 min. Add 50 μl of Stop solution (2N Sulfuric Acid) to each well and read plate at 450 nm and correct for plastic reading at 570 nm.

[17] = molecular target: T2, human complement C3b protein; experiment: AlphaScreen bead proximity, C3b-Acceptor beads pre-incubated with antibody, then C3b-Donor beads; inhibition of C3b-C3b dimer formation; unit from the axis [Antibody] nM [D]
Experimental: as §2, §1

[18] = molecular target: T2, human complement C3b protein; experiment: cell-based or functional assay; remark: listed apart in the source
[19] = molecular target: T4, human C3d; experiment: C3d binding ELISA, IgG titrated from about 0.006 to 100 nM
[20] = molecular target: T2, human complement C3b protein; experiment: AlphaScreen bead proximity, C3b-Acceptor beads pre-incubated with antibody, then biotinylated fH and SA-Donor beads; blocked ligand: fH [C]
Experimental: as §2, §1

[21] = molecular target: T2, human complement C3b protein; experiment: SPR (Biacore T100), C3b captured by anti-C3d antibody, IgG as analyte, 1:1 model
[22] = molecular target: T3, cynomolgus complement C3b protein; experiment: as above

T4 sequence (P01024 1002-1303 limits assumed): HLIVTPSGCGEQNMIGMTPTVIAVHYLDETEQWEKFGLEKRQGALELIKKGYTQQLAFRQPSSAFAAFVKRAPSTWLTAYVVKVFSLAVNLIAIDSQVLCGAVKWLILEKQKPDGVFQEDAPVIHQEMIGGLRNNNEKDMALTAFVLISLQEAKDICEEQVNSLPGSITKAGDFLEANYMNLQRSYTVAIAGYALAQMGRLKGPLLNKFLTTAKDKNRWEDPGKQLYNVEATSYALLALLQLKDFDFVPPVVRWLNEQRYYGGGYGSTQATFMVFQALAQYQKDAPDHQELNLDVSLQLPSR
T2 sequence (P01024 23-667 P314L, chain 1 of 2): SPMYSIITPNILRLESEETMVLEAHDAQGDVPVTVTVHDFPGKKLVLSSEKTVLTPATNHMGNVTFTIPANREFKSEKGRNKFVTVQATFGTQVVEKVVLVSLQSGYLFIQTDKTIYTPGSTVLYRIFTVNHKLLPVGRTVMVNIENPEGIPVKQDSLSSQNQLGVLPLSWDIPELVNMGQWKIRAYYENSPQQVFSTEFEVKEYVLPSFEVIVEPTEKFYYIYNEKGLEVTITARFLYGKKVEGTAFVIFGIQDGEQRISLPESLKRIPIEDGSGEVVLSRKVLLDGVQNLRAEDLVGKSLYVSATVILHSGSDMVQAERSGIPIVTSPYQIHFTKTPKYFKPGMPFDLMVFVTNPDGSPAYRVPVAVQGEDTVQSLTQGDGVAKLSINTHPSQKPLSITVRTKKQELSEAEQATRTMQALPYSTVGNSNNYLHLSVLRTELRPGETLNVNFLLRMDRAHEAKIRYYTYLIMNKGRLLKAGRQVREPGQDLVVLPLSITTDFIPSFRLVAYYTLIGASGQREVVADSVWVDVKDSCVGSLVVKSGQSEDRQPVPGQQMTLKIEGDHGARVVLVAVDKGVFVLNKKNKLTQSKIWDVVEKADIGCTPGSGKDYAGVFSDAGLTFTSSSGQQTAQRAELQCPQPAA
T2 sequence (P01024 749-1663, chain 2 of 2): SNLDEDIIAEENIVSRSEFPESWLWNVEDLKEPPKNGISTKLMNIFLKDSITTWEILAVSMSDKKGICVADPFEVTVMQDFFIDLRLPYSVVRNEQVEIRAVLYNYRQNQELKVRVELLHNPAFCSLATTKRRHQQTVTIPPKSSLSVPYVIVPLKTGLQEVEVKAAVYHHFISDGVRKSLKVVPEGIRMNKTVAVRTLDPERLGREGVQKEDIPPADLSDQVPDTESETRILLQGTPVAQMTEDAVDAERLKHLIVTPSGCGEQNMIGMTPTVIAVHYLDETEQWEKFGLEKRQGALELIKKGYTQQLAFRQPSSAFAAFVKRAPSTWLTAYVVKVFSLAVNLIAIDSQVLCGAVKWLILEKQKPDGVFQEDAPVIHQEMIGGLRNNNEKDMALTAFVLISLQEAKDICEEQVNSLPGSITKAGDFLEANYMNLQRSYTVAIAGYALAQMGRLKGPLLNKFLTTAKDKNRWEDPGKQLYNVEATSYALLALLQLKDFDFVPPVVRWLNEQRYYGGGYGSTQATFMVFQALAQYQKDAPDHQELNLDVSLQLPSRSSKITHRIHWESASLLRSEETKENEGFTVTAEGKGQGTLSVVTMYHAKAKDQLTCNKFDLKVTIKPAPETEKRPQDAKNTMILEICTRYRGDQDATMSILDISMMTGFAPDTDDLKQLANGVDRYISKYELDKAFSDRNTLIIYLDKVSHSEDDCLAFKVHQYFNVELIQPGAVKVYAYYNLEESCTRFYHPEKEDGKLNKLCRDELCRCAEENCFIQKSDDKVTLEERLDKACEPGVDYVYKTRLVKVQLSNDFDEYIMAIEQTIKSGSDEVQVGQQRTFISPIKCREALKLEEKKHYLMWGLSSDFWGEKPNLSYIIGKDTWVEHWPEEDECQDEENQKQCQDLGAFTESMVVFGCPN
T1 sequence (P01031 19-673 limits assumed, chain 1 of 2): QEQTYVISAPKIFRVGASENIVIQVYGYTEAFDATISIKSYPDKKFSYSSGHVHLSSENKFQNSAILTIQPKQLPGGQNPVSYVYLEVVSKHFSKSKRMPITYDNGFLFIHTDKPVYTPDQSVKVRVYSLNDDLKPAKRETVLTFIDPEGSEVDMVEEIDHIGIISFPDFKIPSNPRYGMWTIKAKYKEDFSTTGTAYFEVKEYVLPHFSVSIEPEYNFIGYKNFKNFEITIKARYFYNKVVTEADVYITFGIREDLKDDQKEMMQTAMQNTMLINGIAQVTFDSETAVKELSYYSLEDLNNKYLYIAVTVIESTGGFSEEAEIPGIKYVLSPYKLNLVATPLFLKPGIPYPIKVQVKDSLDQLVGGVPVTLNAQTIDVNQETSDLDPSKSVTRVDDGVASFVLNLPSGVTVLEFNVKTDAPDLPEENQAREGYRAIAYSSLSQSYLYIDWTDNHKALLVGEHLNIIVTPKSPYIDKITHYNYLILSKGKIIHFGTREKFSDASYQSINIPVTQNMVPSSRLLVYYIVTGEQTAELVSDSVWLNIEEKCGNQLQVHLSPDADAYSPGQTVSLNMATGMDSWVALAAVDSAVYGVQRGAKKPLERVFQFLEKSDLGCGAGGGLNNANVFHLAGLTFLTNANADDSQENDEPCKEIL
T1 sequence (P01031 678-1676 limits assumed, chain 2 of 2): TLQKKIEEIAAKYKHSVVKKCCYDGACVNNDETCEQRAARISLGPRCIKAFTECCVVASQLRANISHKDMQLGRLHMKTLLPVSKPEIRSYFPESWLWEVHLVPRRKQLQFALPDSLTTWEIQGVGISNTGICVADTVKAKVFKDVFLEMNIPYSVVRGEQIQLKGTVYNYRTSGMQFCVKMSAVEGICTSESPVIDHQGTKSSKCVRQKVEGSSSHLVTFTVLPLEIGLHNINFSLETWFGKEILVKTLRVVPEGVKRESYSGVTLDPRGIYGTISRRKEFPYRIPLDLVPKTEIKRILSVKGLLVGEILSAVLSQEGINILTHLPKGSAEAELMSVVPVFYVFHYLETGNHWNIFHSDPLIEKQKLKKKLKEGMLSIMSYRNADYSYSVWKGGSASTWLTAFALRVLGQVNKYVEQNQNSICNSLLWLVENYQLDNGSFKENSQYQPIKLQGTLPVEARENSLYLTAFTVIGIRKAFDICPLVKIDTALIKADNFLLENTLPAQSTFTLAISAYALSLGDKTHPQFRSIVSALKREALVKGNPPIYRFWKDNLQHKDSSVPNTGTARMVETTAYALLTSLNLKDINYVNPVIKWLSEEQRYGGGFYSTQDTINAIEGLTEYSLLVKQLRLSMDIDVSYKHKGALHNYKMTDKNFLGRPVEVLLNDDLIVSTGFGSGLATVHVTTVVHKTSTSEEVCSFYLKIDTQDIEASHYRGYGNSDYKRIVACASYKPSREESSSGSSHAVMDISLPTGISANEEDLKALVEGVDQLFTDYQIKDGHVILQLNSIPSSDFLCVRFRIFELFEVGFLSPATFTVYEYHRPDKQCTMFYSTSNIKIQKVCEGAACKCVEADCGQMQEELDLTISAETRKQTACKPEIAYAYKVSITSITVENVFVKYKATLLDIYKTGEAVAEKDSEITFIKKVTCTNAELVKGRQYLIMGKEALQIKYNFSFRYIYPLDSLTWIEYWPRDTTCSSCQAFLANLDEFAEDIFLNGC

| binding result [1] | Kd [2] [nM] | Kd [3] [nM] | C3b Dep (nM), human serum, IC50 [4] [nM] | HA (nM), 10% human serum, IC50 [4] [nM] | MAC Dep (nM), human serum, IC50 [4] [nM] | C3b Dep (nM), cyno serum, IC50 [5] [nM] | HA (nM), 10% cyno serum, IC50 [5] [nM] | MAC Dep (nM), cyno serum, IC50 [5] [nM] | IC50 [6] [nM] | binding result [7] | IC50 [8] [nM] | Kd [9] [nM] | Kd [10] [nM] | Binder | further results |
| --- | --- | --- | --- | --- | --- | --- | --- | --- | --- | --- | --- | --- | --- | --- | --- |
| no binding | 0.1 | 0.34 | 14 | 48 | 1 | 66 | 83 | 4 | 0.08 | no binding | 0.2 | 0.075 | 0.486 | MOR09423 Fab (Fab, V domains shown, also called Fab 9423) VH: QVQLVQSGAEVKKPGASVKVSCKASGYTFTGYYINWVRQAPGQGLEWMGIISPNQGTTGYAQKFQGRVTMTRDTSISTAYMELSSLRSEDTAVYYCARGNYDHLDYWGQGTLVTVSS VL: DIQMTQSPSSLSASVGDRVTITCRASQGISNYLNWYQQKPGKAPKLLIYDASTLQSGVPSRFSGSGSGTDFTLTISSLQPEDFATYYCQQDWHTLPVTFGQGTKVEIKR | – |
| – | – | – | – | – | – | – | – | – | – | – | – | – | – | MOR9674 Fab format (Fab, V domains shown) VH: EVQLVQSGAEVKKPGASVKVSCKASGYTFTSYSMHWVRQAPGQGLEWMGLINPYNGNTHYAQKFQGRVTMTRDTSISTAYMELSSLRSEDTAVYYCARMLRFDVWGQGTLVTVSS VL: ESALTQPASVSGSPGQSITISCTGTSSDGGGYNYVSWYQQHPGKAPKLMIYGVSNRPSGVSNRFSGSKSGNTASLTISGLQAEDEADYYCQTYTRYSDSPVFGGGTKLTVLG | binding result [11]: no binding (tested: 200 nM); Kd [12]: 0.119 nM; C3b Dep (nM), cyno serum, IC50 [13]: 70 nM; HA (nM), 10% cyno serum, IC50 [13]: 78 nM; MAC Dep (nM), cyno serum, IC50 [13]: 17 nM; Kd [14]: 0.09 nM |
| no binding | 0.001 | 0.021 | 16 | 44 | 1 | 73 | 101 | 5 | 1 | no binding | 3 | 0.007 | 0.033 | MOR09124 Fab (Fab, V domains shown, HCDR2-matured derivative of parental MOR08305) VH: QVQLVESGGGLVQPGGSLRLSCAASGFTFSSYWMTWVRQAPGKGLEWVSSIKIKPDGYAASVKGRFTISRDNSKNTLYLQMNSLRAEDTAVYYCARLFYQYFARMDYWGQGTLVTVSS VL: DIQMTQSPSSLSASVGDRVTITCRASQDISNYLNWYQQKPGKAPKLLIYAASNLQSGVPSRFSGSGSGTDFTLTISSLQPEDFATYYCQQYDSYSPTFGQGTKVEIKR | – |
| – | – | – | – | – | – | – | – | – | – | – | – | – | – | MOR09612 IgG (antibody, V domains shown, Germlined human IgG1 with leucines 234 and 235 changed to alanines, kappa; also called antibody 9612) VH: EVQLVESGGGLVQPGGSLRLSCAASGFTFSSYWMTWVRQAPGKGLEWVSSIKIKPDGYAASVKGRFTISRDNSKNTLYLQMNSLRAEDTAVYYCARLFYQYFARMDYWGQGTLVTVSS VL: DIQMTQSPSSLSASVGDRVTITCRASQDISNYLNWYQQKPGKAPKLLIYAASNLQSGVPSRFSGSGSGTDFTLTISSLQPEDFATYYCQQWDSFSPTFGQGTKVEIKR | IC50 (read off the curve) [15]: ~0.05 nM; fold binding selectivity for C3b over C3 [16]: > 1000 fold; EC50 [17]: 340 nM; MAC deposition on zymosan, IC50 [18]: ≤ 5 nM; hemolysis of rabbit red blood cells, 10% human or cynomolgus serum, IC50 [18]: ≤ 50 nM; inhibition of C3a and C5a generation during hemolysis, IC50 [18]: ≤ 50 nM; binding result [19]: no binding (tested: 100 nM); IC50 (read off the curve) [20]: ~0.04 nM; Kd [21]: 0.00179 nM; koff [21]: 9.04e-06 s⁻¹; kon [21]: 5.05e+06 M⁻¹ s⁻¹; Kd [22]: 0.0253 nM; koff [22]: 8.67e-05 s⁻¹; kon [22]: 3.43e+06 M⁻¹ s⁻¹ |
